For one assay, the target named is T1, CRF1R receptor (UniProt P34998 24-415, limits assumed).
T1 sequence (looked up): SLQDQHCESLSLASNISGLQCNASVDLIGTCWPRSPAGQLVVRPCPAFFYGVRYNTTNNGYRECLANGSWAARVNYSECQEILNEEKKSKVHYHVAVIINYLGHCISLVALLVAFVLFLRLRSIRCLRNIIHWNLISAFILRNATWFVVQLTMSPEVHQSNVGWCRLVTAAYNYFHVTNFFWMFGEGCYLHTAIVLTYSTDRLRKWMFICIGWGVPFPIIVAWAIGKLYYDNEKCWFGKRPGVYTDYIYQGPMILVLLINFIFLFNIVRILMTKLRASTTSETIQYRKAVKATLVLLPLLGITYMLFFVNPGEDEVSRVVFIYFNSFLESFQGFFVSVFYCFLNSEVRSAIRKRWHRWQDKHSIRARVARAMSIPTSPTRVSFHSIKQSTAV
Description: cell-based or functional assay.

Assay [1] has as its target human corticotropin-releasing factor 2a (CRF2a receptor) (human), Q13324. Description: cell-based or functional assay.

*1 amine or outer side, *2 acyl side, *3 side chain or, on linkers, in order; H or OH if unused. Where no end group is shown, it is not given here. Side-chain parts run from the residue outwards. [ ]: non-standard residue; d: D form. The star is where a group is joined. C20 diacid = O=C(O)CCCCCCCCCCCCCCCCCCC(=O)*; C18 diacid = O=C(O)CCCCCCCCCCCCCCCCC(=O)*; C16 diacid = O=C(O)CCCCCCCCCCCCCCC(=O)*; γGlu = O=C(O)[C@H](CCC(=O)[*:2])N[*:1]; Myristoyl = CCCCCCCCCCCCCC(=O)*; Api = NC1(C(=O)O)CCNCC1; AEEA = NCCOCCOCC(=O)O; Aib = CC(C)(N)C(=O)O

human corticotropin-releasing factor 2a (CRF2a receptor) (human), Q13324, sequence (Q13324 20-411): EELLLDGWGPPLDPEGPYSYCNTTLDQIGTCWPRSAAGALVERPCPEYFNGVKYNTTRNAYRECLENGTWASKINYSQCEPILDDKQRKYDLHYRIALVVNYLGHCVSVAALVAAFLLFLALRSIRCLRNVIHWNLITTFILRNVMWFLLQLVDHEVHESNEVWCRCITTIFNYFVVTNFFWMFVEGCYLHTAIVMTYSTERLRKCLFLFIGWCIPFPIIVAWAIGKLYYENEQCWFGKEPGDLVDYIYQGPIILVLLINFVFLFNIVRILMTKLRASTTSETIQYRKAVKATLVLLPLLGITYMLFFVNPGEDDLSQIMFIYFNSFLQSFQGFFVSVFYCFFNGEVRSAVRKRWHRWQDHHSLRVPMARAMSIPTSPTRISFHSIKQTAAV

B1: SEQ ID NO 92 (peptide)
peptide: Ac-VLSLD[dV]PIKLK([AEEA-AEEA-γGlu-C18 diacid])KILLEQEKQKKQREQAETNKQILAQV-NH2
SMILES: CC[C@H](C)[C@H](NC(=O)[C@H](CCC(N)=O)NC(=O)[C@H](CCCCN)NC(=O)[C@H](CC(N)=O)NC(=O)[C@@H](NC(=O)[C@H](CCC(=O)O)NC(=O)[C@H](C)NC(=O)[C@H](CCC(N)=O)NC(=O)[C@H](CCC(=O)O)NC(=O)[C@H](CCCNC(=N)N)NC(=O)[C@H](CCC(N)=O)NC(=O)[C@H](CCCCN)NC(=O)[C@H](CCCCN)NC(=O)[C@H](CCC(N)=O)NC(=O)[C@H](CCCCN)NC(=O)[C@H](CCC(=O)O)NC(=O)[C@H](CCC(N)=O)NC(=O)[C@H](CCC(=O)O)NC(=O)[C@H](CC(C)C)NC(=O)[C@H](CC(C)C)NC(=O)[C@@H](NC(=O)[C@H](CCCCN)NC(=O)[C@H](CCCCNC(=O)COCCOCCNC(=O)COCCOCCNC(=O)CC[C@H](NC(=O)CCCCCCCCCCCCCCCCC(=O)O)C(=O)O)NC(=O)[C@H](CC(C)C)NC(=O)[C@H](CCCCN)NC(=O)[C@@H](NC(=O)[C@@H]1CCCN1C(=O)[C@H](NC(=O)[C@H](CC(=O)O)NC(=O)[C@H](CC(C)C)NC(=O)[C@H](CO)NC(=O)[C@H](CC(C)C)NC(=O)[C@@H](NC(C)=O)C(C)C)C(C)C)[C@@H](C)CC)[C@@H](C)CC)[C@@H](C)O)C(=O)N[C@@H](CC(C)C)C(=O)N[C@@H](C)C(=O)N[C@@H](CCC(N)=O)C(=O)N[C@H](C(N)=O)C(C)C
B1: the “Emax (% I)” value with CRF1R receptor amounted to 5%. In assay [1], this molecule registered an EC50 [nM] (cAMP) of 2.3 nM.

B2: SEQ ID NO 226 (peptide)
peptide: Ac-IVLSLD[dV]PIGLK([γGlu-C20 diacid])KILLEQEKQKKQREQAETN[Aib]QILAQV-NH2
SMILES: CC[C@H](C)[C@H](NC(C)=O)C(=O)N[C@H](C(=O)N[C@@H](CC(C)C)C(=O)N[C@@H](CO)C(=O)N[C@@H](CC(C)C)C(=O)N[C@@H](CC(=O)O)C(=O)N[C@@H](C(=O)N1CCC[C@H]1C(=O)N[C@H](C(=O)NCC(=O)N[C@@H](CC(C)C)C(=O)N[C@@H](CCCCNC(=O)CC[C@H](NC(=O)CCCCCCCCCCCCCCCCCCC(=O)O)C(=O)O)C(=O)N[C@@H](CCCCN)C(=O)N[C@H](C(=O)N[C@@H](CC(C)C)C(=O)N[C@@H](CC(C)C)C(=O)N[C@@H](CCC(=O)O)C(=O)N[C@@H](CCC(N)=O)C(=O)N[C@@H](CCC(=O)O)C(=O)N[C@@H](CCCCN)C(=O)N[C@@H](CCC(N)=O)C(=O)N[C@@H](CCCCN)C(=O)N[C@@H](CCCCN)C(=O)N[C@@H](CCC(N)=O)C(=O)N[C@@H](CCCNC(=N)N)C(=O)N[C@@H](CCC(=O)O)C(=O)N[C@@H](CCC(N)=O)C(=O)N[C@@H](C)C(=O)N[C@@H](CCC(=O)O)C(=O)N[C@H](C(=O)N[C@@H](CC(N)=O)C(=O)NC(C)(C)C(=O)N[C@@H](CCC(N)=O)C(=O)N[C@H](C(=O)N[C@@H](CC(C)C)C(=O)N[C@@H](C)C(=O)N[C@@H](CCC(N)=O)C(=O)N[C@H](C(N)=O)C(C)C)[C@@H](C)CC)[C@@H](C)O)[C@@H](C)CC)[C@@H](C)CC)C(C)C)C(C)C
Usually EC50 stands for the concentration giving half of the maximal effect. A high value points to weaker potency. Regarding B2, in the assay with CRF1R receptor, a half-maximal effect (EC50) was put at 42.1 nM and the “Emax (% I)” value was determined as 82%. In assay [1], this molecule had an EC50 [nM] (cAMP) of 0.18 nM.

B3: SEQ ID NO 227 (peptide)
peptide: Ac-IVLSLD[dV]PIGLK([γGlu-C20 diacid])KILLEQEKQKKQREQAETN[Api]QILAQV-NH2
SMILES: CC[C@H](C)[C@H](NC(C)=O)C(=O)N[C@H](C(=O)N[C@@H](CC(C)C)C(=O)N[C@@H](CO)C(=O)N[C@@H](CC(C)C)C(=O)N[C@@H](CC(=O)O)C(=O)N[C@@H](C(=O)N1CCC[C@H]1C(=O)N[C@H](C(=O)NCC(=O)N[C@@H](CC(C)C)C(=O)N[C@@H](CCCCNC(=O)CC[C@H](NC(=O)CCCCCCCCCCCCCCCCCCC(=O)O)C(=O)O)C(=O)N[C@@H](CCCCN)C(=O)N[C@H](C(=O)N[C@@H](CC(C)C)C(=O)N[C@@H](CC(C)C)C(=O)N[C@@H](CCC(=O)O)C(=O)N[C@@H](CCC(N)=O)C(=O)N[C@@H](CCC(=O)O)C(=O)N[C@@H](CCCCN)C(=O)N[C@@H](CCC(N)=O)C(=O)N[C@@H](CCCCN)C(=O)N[C@@H](CCCCN)C(=O)N[C@@H](CCC(N)=O)C(=O)N[C@@H](CCCNC(=N)N)C(=O)N[C@@H](CCC(=O)O)C(=O)N[C@@H](CCC(N)=O)C(=O)N[C@@H](C)C(=O)N[C@@H](CCC(=O)O)C(=O)N[C@H](C(=O)N[C@@H](CC(N)=O)C(=O)NC1(C(=O)N[C@@H](CCC(N)=O)C(=O)N[C@H](C(=O)N[C@@H](CC(C)C)C(=O)N[C@@H](C)C(=O)N[C@@H](CCC(N)=O)C(=O)N[C@H](C(N)=O)C(C)C)[C@@H](C)CC)CCNCC1)[C@@H](C)O)[C@@H](C)CC)[C@@H](C)CC)C(C)C)C(C)C
On to B3, for which, in the assay with CRF1R receptor, the response was half-maximal at 1.74 nM (EC50) and the “Emax (% I)” value was determined as 97%. This molecule also showed an EC50 [nM] (cAMP) in assay [1] of 0.2 nM.

B4: SEQ ID NO 225 (peptide)
peptide: Myristoyl-VLSLD[dV]PIKLK([γGlu-C20 diacid])KILLEQEKQKKQREQAETN[Aib]QILAQV-NH2
SMILES: CCCCCCCCCCCCCC(=O)N[C@H](C(=O)N[C@@H](CC(C)C)C(=O)N[C@@H](CO)C(=O)N[C@@H](CC(C)C)C(=O)N[C@@H](CC(=O)O)C(=O)N[C@@H](C(=O)N1CCC[C@H]1C(=O)N[C@H](C(=O)N[C@@H](CCCCN)C(=O)N[C@@H](CC(C)C)C(=O)N[C@@H](CCCCNC(=O)CC[C@H](NC(=O)CCCCCCCCCCCCCCCCCCC(=O)O)C(=O)O)C(=O)N[C@@H](CCCCN)C(=O)N[C@H](C(=O)N[C@@H](CC(C)C)C(=O)N[C@@H](CC(C)C)C(=O)N[C@@H](CCC(=O)O)C(=O)N[C@@H](CCC(N)=O)C(=O)N[C@@H](CCC(=O)O)C(=O)N[C@@H](CCCCN)C(=O)N[C@@H](CCC(N)=O)C(=O)N[C@@H](CCCCN)C(=O)N[C@@H](CCCCN)C(=O)N[C@@H](CCC(N)=O)C(=O)N[C@@H](CCCNC(=N)N)C(=O)N[C@@H](CCC(=O)O)C(=O)N[C@@H](CCC(N)=O)C(=O)N[C@@H](C)C(=O)N[C@@H](CCC(=O)O)C(=O)N[C@H](C(=O)N[C@@H](CC(N)=O)C(=O)NC(C)(C)C(=O)N[C@@H](CCC(N)=O)C(=O)N[C@H](C(=O)N[C@@H](CC(C)C)C(=O)N[C@@H](C)C(=O)N[C@@H](CCC(N)=O)C(=O)N[C@H](C(N)=O)C(C)C)[C@@H](C)CC)[C@@H](C)O)[C@@H](C)CC)[C@@H](C)CC)C(C)C)C(C)C
Turning to B4, in the assay with CRF1R receptor, it took 73.4 nM to reach a half-maximal effect (EC50) and the “Emax (% I)” value was determined as 70%. In assay [1], this molecule displayed an EC50 [nM] (cAMP) of 0.09 nM.

B5: SEQ ID NO 93 (peptide)
peptide: VLSLD[dV]PIKLK([AEEA-AEEA-γGlu-C18 diacid])KILLEQEKQKKQREQAETNKQILAQV-NH2
modifications: N-terminus assumed
SMILES: CC[C@H](C)[C@H](NC(=O)[C@H](CCC(N)=O)NC(=O)[C@H](CCCCN)NC(=O)[C@H](CC(N)=O)NC(=O)[C@@H](NC(=O)[C@H](CCC(=O)O)NC(=O)[C@H](C)NC(=O)[C@H](CCC(N)=O)NC(=O)[C@H](CCC(=O)O)NC(=O)[C@H](CCCNC(=N)N)NC(=O)[C@H](CCC(N)=O)NC(=O)[C@H](CCCCN)NC(=O)[C@H](CCCCN)NC(=O)[C@H](CCC(N)=O)NC(=O)[C@H](CCCCN)NC(=O)[C@H](CCC(=O)O)NC(=O)[C@H](CCC(N)=O)NC(=O)[C@H](CCC(=O)O)NC(=O)[C@H](CC(C)C)NC(=O)[C@H](CC(C)C)NC(=O)[C@@H](NC(=O)[C@H](CCCCN)NC(=O)[C@H](CCCCNC(=O)COCCOCCNC(=O)COCCOCCNC(=O)CC[C@H](NC(=O)CCCCCCCCCCCCCCCCC(=O)O)C(=O)O)NC(=O)[C@H](CC(C)C)NC(=O)[C@H](CCCCN)NC(=O)[C@@H](NC(=O)[C@@H]1CCCN1C(=O)[C@H](NC(=O)[C@H](CC(=O)O)NC(=O)[C@H](CC(C)C)NC(=O)[C@H](CO)NC(=O)[C@H](CC(C)C)NC(=O)[C@@H](N)C(C)C)C(C)C)[C@@H](C)CC)[C@@H](C)CC)[C@@H](C)O)C(=O)N[C@@H](CC(C)C)C(=O)N[C@@H](C)C(=O)N[C@@H](CCC(N)=O)C(=O)N[C@H](C(N)=O)C(C)C
Consider B5, for which, in the assay with CRF1R receptor, the “Emax (% I)” value was found to be 6%. The EC50 [nM] (cAMP) in assay [1] stood at 5.08 nM.

B6: SEQ ID NO 33 (peptide)
peptide: Ac-VLSLD[dV]PIKLK([γGlu-C16 diacid])KILLEQEKQKKQREQAETNKQILAQV-NH2
SMILES: CC[C@H](C)[C@H](NC(=O)[C@H](CCC(N)=O)NC(=O)[C@H](CCCCN)NC(=O)[C@H](CC(N)=O)NC(=O)[C@@H](NC(=O)[C@H](CCC(=O)O)NC(=O)[C@H](C)NC(=O)[C@H](CCC(N)=O)NC(=O)[C@H](CCC(=O)O)NC(=O)[C@H](CCCNC(=N)N)NC(=O)[C@H](CCC(N)=O)NC(=O)[C@H](CCCCN)NC(=O)[C@H](CCCCN)NC(=O)[C@H](CCC(N)=O)NC(=O)[C@H](CCCCN)NC(=O)[C@H](CCC(=O)O)NC(=O)[C@H](CCC(N)=O)NC(=O)[C@H](CCC(=O)O)NC(=O)[C@H](CC(C)C)NC(=O)[C@H](CC(C)C)NC(=O)[C@@H](NC(=O)[C@H](CCCCN)NC(=O)[C@H](CCCCNC(=O)CC[C@H](NC(=O)CCCCCCCCCCCCCCC(=O)O)C(=O)O)NC(=O)[C@H](CC(C)C)NC(=O)[C@H](CCCCN)NC(=O)[C@@H](NC(=O)[C@@H]1CCCN1C(=O)[C@H](NC(=O)[C@H](CC(=O)O)NC(=O)[C@H](CC(C)C)NC(=O)[C@H](CO)NC(=O)[C@H](CC(C)C)NC(=O)[C@@H](NC(C)=O)C(C)C)C(C)C)[C@@H](C)CC)[C@@H](C)CC)[C@@H](C)O)C(=O)N[C@@H](CC(C)C)C(=O)N[C@@H](C)C(=O)N[C@@H](CCC(N)=O)C(=O)N[C@H](C(N)=O)C(C)C
For the molecule B6, the “Emax (% I)” value with CRF1R receptor worked out at 13%. Besides, the EC50 [nM] (cAMP) in assay [1] amounted to 0.47 nM.

The values are drawn from patent US20260001928A1 (CORTERIA PHARMACEUTICALS, priority 2022, published 2026).
